Values of other authors in publication PMC4321873.

Biological target: Glu286 (UniProt position 286, FFGHPEVYIIV)
Test: kinetics

Cytochrome c oxidase (aa3-type), subunit I (Rhodobacter sphaeroides)
pKa: ∼9.4
